Test results: the supplement of paper PMC7877785
± gives the uncertainty stated by the source.

Test: self-splicing fitness, log relative to wild type (ln ratio); higher = more splicing; Tetrahymena group I intron in knt gene, E. coli kanamycin selection, DiMSum; sequences stand for … in CUCUCU…GGAGGGAAAAGUUAUCAGGCAUGCACCUGGUAGCUAGUCUUUAAACCAAUAGAUUGCAUCGGUUUAAAAGGCAAGACCGUCAAAUUGCGGGAAAGGGGUCAACAGCCGUUCAGUACCAAGUCUCAGGGGAAACUUUGAGAUGGCCUUGCAAAGGGUAUGGUAAUAAGCUGACGGACAUGGUCCUAACCACGCAGCCAAGUCCUAAGUCAACAGAUCUUCUGUUGAUAUGGAUGCAGUUCACAGACUAAAUGUCGGUCGGGGAAGAUGUAUUCUUCUCAUAAGAUAUAGUCGGACCUCUCCUUAAUGGGAGCUAGCGGAUGAAGUGAUGCAACACUGGAGCCGCUGGGAACUAAUUUGUAUGCGAAAGUAUAUUGAUUAGUUUUGGAGUACUCGUGGUCG
How it was run: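 Six replicate transformations of E. coli BL21(DE3) with a pET-22b(+) library were grown overnight at 37°C or 30°C. The library randomised all eight P1ex-region intron nucleotides, the intron lying in the knt kanamycin-resistance gene, and plates were LB agar with or without 25 μg/mL kanamycin plus 100 μg/mL carbenicillin, 50 μM IPTG and 0.2% rhamnose. Pooled colonies were amplicon-sequenced on an Illumina HiSeq 2500, and fitness is the DiMSum error-weighted combination of wild-type-normalised replicate fold changes, kanamycin versus none.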

Row | Sequence | self-splicing fitness (ln) (30 °C) | self-splicing fitness (ln) (37 °C)
1 | UGACAGCAAUAUUACGCUUA | -1.26 ± 0.088 | -0.0997 ± 0.094
2 | UGACAGCAAUAUUACGGCAC | -3.55 ± 0.19 | -2.23 ± 0.19
3 | UGACAGCAAUAUUACGGGAA | -1.33 ± 0.12 | -0.827 ± 0.081
4 | UGACAGCAAUAUUACGGGAU | -3.3 ± 0.17 | -2.94 ± 0.15
5 | UGACAGCAAUAUUACGGGCC | -3.34 ± 0.22 | -2.23 ± 0.27
6 | UGACAGCAAUAUUACGGGGA | -1.25 ± 0.087 | -1.61 ± 0.12
7 | UGACAGCAAUAUUACGGGGC | -2.96 ± 0.13 | -2.56 ± 0.12
8 | UGACAGCAAUAUUACGGGUC | -3.81 ± 0.24 | -2.94 ± 0.2
9 | UGACAGCAAUAUUACGGUCA | -2.97 ± 0.28 | -0.408 ± 0.17
10 | UGACAGCAAUAUUACGUAAA | -1.01 ± 0.08 | -1.26 ± 0.11
11 | UGACAGCAAUAUUACGUGAG | -0.267 ± 0.028 | -0.365 ± 0.046
12 | UGACAGCAAUAUUACGUUGU | -3.48 ± 0.15 | -2.58 ± 0.2
13 | UGACAGCAAUAUUACGUUUU | -2.76 ± 0.11 | -1.43 ± 0.098
14 | UGAGAGCAAUAUUACGAAGG | -2.94 ± 0.18 | -1.85 ± 0.27
15 | UGAGAGCAAUAUUACGACGU | -2.66 ± 0.19 | -1.78 ± 0.24
16 | UGAGAGCAAUAUUACGAGAA |  | -1.39 ± 0.43
17 | UGAGAGCAAUAUUACGAUUU | -2.34 ± 0.17 | -2.26 ± 0.27
18 | UGAGAGCAAUAUUACGCACU | -3.11 ± 0.32 | -2.02 ± 0.21
19 | UGAGAGCAAUAUUACGCAGC | -3.13 ± 0.23 | -2.16 ± 0.3
20 | UGAGAGCAAUAUUACGCCAG | -3.52 ± 0.42 | -2.41 ± 0.35

Row | Sequence | self-splicing fitness (ln) (30 °C) | self-splicing fitness (ln) (37 °C)
21 | UGAGAGCAAUAUUACGCCCA | -1.49 ± 0.26 | 
22 | UGAGAGCAAUAUUACGGACA | -1.66 ± 0.18 | -0.674 ± 0.2
23 | UGAGAGCAAUAUUACGGAGG | -2.31 ± 0.28 | -1.91 ± 0.3
24 | UGAGAGCAAUAUUACGGGCA | -0.578 ± 0.12 | -0.806 ± 0.17
25 | UGAGAGCAAUAUUACGGGGG | -3.4 ± 0.31 | -1.99 ± 0.22
26 | UGAGAGCAAUAUUACGGUAG | -3.74 ± 0.34 | -2.88 ± 0.38
27 | UGAGAGCAAUAUUACGUAGC |  | -2.96 ± 0.4
28 | UGAGAGCAAUAUUACGUCAA | -3.55 ± 0.29 | -2.89 ± 0.3
29 | UGAGAGCAAUAUUACGUCCG | -1.25 ± 0.23 | -1.19 ± 0.42
30 | UGAGAGCAAUAUUACGUCUU | -3.18 ± 0.44 | -1.9 ± 0.28
31 | UGAGAGCAAUAUUACGUGAA | -4.19 ± 0.33 | -2.35 ± 0.27
32 | UGAUAGCAAUAUUACGACAA |  | -2.07 ± 0.35
33 | UGAUAGCAAUAUUACGACGC |  | -3.55 ± 0.29
34 | UGAUAGCAAUAUUACGACUC | -3.07 ± 0.21 | -1.46 ± 0.18
35 | UGAUAGCAAUAUUACGAGUG | -1.14 ± 0.084 | -0.545 ± 0.12
36 | UGAUAGCAAUAUUACGCAAG |  | -2.3 ± 0.26
37 | UGAUAGCAAUAUUACGCACG | -1.41 ± 0.3 | -0.216 ± 0.19
38 | UGAUAGCAAUAUUACGCGUU | -2.9 ± 0.24 | -2.54 ± 0.39
39 | UGAUAGCAAUAUUACGCUCA | 0.162 ± 0.15 | -0.26 ± 0.15
40 | UGAUAGCAAUAUUACGCUUA | -2.07 ± 0.12 | -0.143 ± 0.12
